Experimental data taken from article doi:10.1101/2021.04.12.439405 (bioRxiv, 2021).

Tests used:
[1] = target: T1, MukB-His (wild type MukB) (E. coli, UniProt P22523 1-1486); assay: native MS
T1 sequence (looked up): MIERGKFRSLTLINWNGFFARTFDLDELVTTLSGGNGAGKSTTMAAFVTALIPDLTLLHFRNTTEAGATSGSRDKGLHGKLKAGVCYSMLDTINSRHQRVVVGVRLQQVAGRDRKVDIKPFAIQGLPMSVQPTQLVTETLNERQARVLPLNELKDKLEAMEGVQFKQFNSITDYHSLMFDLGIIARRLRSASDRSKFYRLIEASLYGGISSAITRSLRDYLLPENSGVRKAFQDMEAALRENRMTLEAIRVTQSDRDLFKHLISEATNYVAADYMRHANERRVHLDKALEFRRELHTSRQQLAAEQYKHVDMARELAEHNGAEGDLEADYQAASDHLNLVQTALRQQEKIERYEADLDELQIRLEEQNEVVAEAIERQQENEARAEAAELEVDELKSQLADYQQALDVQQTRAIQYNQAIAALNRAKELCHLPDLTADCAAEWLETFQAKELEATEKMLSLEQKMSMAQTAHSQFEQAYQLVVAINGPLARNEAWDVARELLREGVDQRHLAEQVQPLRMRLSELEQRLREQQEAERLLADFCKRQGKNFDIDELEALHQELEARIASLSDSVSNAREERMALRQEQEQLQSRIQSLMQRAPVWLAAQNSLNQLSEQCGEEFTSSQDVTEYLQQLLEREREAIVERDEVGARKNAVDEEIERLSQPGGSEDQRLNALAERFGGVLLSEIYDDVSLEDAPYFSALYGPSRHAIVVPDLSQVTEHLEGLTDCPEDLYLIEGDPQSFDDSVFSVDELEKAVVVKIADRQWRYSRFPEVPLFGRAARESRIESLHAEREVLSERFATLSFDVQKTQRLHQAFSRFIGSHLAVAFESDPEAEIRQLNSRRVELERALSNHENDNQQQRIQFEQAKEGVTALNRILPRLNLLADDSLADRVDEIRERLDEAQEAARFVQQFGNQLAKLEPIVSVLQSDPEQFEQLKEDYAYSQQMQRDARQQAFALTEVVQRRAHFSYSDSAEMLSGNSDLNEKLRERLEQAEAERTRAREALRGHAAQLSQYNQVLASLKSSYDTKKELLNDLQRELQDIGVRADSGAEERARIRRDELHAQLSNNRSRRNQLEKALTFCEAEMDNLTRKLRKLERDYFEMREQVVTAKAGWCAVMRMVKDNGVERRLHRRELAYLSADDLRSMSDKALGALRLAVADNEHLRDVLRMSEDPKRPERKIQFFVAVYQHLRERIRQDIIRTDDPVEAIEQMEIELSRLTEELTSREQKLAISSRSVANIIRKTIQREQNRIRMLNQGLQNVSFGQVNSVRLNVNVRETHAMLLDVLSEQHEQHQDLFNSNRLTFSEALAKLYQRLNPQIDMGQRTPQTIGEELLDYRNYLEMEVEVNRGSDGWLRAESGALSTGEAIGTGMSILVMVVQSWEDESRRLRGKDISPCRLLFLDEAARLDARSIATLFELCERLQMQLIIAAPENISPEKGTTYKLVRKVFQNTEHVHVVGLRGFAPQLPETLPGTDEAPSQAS

[2] = target: the molecule itself; assay: native MS

- binding result [1]: binds
B1: His-MukF (natural protein, E. coli, UniProt P60293 1-440, looked up)
chain: MSEFSQTVPELVAWARKNDFSISLPVDRLSFLLAVATLNGERLDGEMSEGELVDAFRHVSDAFEQTSETIGVRANNAINDMVRQRLLNRFTSEQAEGNAIYRLTPLGIGITDYYIRQREFSTLRLSMQLSIVAGELKRAADAAEEGGDEFHWHRNVYAPLKYSVAEIFDSIDLTQRLMDEQQQQVKDDIAQLLNKDWRAAISSCELLLSETSGTLRELQDTLEAAGDKLQANLLRIQDATMTHDDLHFVDRLVFDLQSKLDRIISWGQQSIDLWIGYDRHVHKFIRTAIDMDKNRVFAQRLRQSVQTYFDEPWALTYANADRLLDMRDEEMALRDEEVTGELPEDLEYEEFNEIREQLAAIIEEQLAVYKTRQVPLDLGLVVREYLSQYPRARHFDVARIVIDQAVRLGVAQADFTGLPAKWQPINDYGAKVQAHVIDKY
- binding result [2]: binds
